B1: EHEE_rd2_0601 (parent)
chain: TYTYKLTDEEASRRAEDEWRNRGYDVRVRNNNGTWEVEVR

Variants of: B1
Assay: folding stability dG (cDNA display proteolysis); higher = more stable
Conditions: PBS, room temperature

Folding stability dG [kcal/mol], by site and new letter:
T34: M 1.58 | I 2 | L 1.48 | K 0.867 | S 1.28 | R 0.865 | W 1.54 | E 1.28 | Q 1.48 | Y 1.66 | N 0.99 | V 2.01 | G 0.674 | D 0.864 | A 1.17 | F 1.62 | H 1.2
N32: A 1.12 | L 0.77 | I -0.191 | T 0.049 | Y 0.605 | Q 1.05 | K 0.989 | W -0.071 | F 0.778 | V 0.08 | S 0.857 | H 1.07 | R 0.859 | G 1.39 | E 1.15 | M 1.08 | D 1.16
E38: D 0.701 | M 1.33 | L 1.28 | A 0.691 | H 1.02 | N 0.56 | S 1.23 | W 0.84 | G -0.74 | F 1.03 | Y 1.03 | Q 1.2 | I 1.77 | V 1.61 | R 0.772 | K 0.392 | T 1.71
V37: A -0.419 | L 1.46 | M 0.715 | I 1.75 | H 0.241 | F 0.362 | Y -0.753 | W -0.973 | T -0.63
N30: P 0.863 | Y 2.33 | H 1.61 | E 1.7 | V 1.43 | D 1 | I 1.35 | T 0.81 | W 1.8 | Q 1.51 | G 0.639 | M 1.4 | K 1.34 | L 1.6 | S 1.1 | R 1.23 | A 1.03 | F 2.29
G33: R -0.712 | N 0.553 | S 0.025 | T -0.078 | D 0.603 | W -0.61 | M -0.081 | A -0.168 | C 0.74 | H -0.011 | F -0.159 | E 0.259 | Y -0.464 | Q 0.157 | L -0.48 | V -0.925 | K -0.238
N31: R 1.34 | S 1.1 | V 1.83 | L 1.51 | Y 1.4 | H 1.32 | E 1.12 | K 1.16 | G 0.546 | Q 1.08 | A 0.996 | W 1.02 | P -0.345 | I 1.76 | T 1.21 | F 1.42 | D 1.06 | M 1.31
R40: A 1.03 | F 1.65 | H 1.1 | K 1.29 | E 0.721 | D 0.685 | C 1.7 | G 0.86 | I 1.51
V39: A -0.517 | F 0.048 | W -0.503 | L 0.587 | I 1.41 | R -0.789 | H -0.712 | Y -0.431 | T -0.975 | C 1.46 | M -0.536
R29: W 1.56 | N 1.17 | Y 1.74 | S 1.55 | Q 1.18 | V 1.67 | M 1.26 | P -0.71 | T 1.86
E36: T 1.27 | A 0.137 | I 1.93 | H 0.826 | C 1.26 | D 0.292 | R -0.245 | S 0.611 | L 1.6 | W 1.83 | V 1.58 | M 1.19 | Q 0.744 | Y 1.98 | N 0.173 | F 1.75
W35: P -0.671 | L -0.206 | C -0.208 | M -0.533 | I 0.328 | V -0.844 | T -0.644 | Y 0.894 | F 0.888

From the MegaScale stability set (Tsuboyama et al. 2023)
